According to patent publication US11419921B2, “Methods of treating neurological disorders” (EnClear Therapies, Inc., priority 2018, dated 2022):

System: (GR)10
Assay: Cleavage of (GR)10 by enzymes in solution (PBS with CaCl2 and MgCl2), LC/MS of GR repeats
Assay type: biochemical
Conditions: (GR)10 50 μM
Method: • (GR)10 dipeptide (also (GR)8, (GR)6, (GR)4, (GR)2) were synthetized by solid-phase synthesis by CanPeptide; All peptides are uncapped and supplied lyophilized with TFA as counter ions. Purity was always above 95%. • Buffer: PBS buffer containing CaCl2 and MgCl2. • Stock solution of enzyme (e.g., 10 mg/mL) (prepared per manufacturer instructions) in PBS. Activators added as necessary. • Working solution of protein of the desired concentration (e.g., 100 μg/mL) prepared immediately before use by diluting the stock solution (e.g., 5 μL of 10 mg/mL stock solution) in PBS buffer (e.g., in 495 μL of PBS). Exemplary Procedure Using 50 μM Concentrations of (GR)10
25 μL of a 100 μM solution of (GR)10 was added to each well of a 96-well plate. 25 μL of a solution of enzyme (two times the desired final enzyme concentration) was added, and the plates were incubated at room temperature. At the specified time points (5 minutes, 10 minutes, 30 minutes, 60 minutes, and 180 minutes) 2.5 μL of a 10% TFA solution were added to stop the reaction. For the time 0 min well, the TFA was added to the well before addition of the enzyme. After last time point, all samples were further diluted with 150 μL of dilution solution. The quenched reaction mixtures were analyzed by LC/MS to determine the concentration of GR repeats of different lengths.
The chromatography and mass spectrometry conditions utilized are shown in Table 2 and Table 3, respectively.

(GR)1 concentration (enzyme 0.25 μg/mL, 0 min): BLQ
(GR)2 concentration (enzyme 0.25 μg/mL, 0 min): BLQ
(GR)4 concentration (enzyme 0.25 μg/mL, 0 min): BLQ
(GR)6 concentration (enzyme 0.25 μg/mL, 0 min): BLQ
(GR)8 concentration (enzyme 0.25 μg/mL, 0 min): 0.3 µM
(GR)10 concentration (enzyme 0.25 μg/mL, 0 min): 44.9 µM
(GR)1 concentration (enzyme 0.25 μg/mL, 2.5 min): BLQ
(GR)2 concentration (enzyme 0.25 μg/mL, 2.5 min): BLQ
(GR)4 concentration (enzyme 0.25 μg/mL, 2.5 min): BLQ
(GR)6 concentration (enzyme 0.25 μg/mL, 2.5 min): BLQ
(GR)8 concentration (enzyme 0.25 μg/mL, 2.5 min): BLQ
(GR)10 concentration (enzyme 0.25 μg/mL, 2.5 min): 55.8 µM
(GR)1 concentration (enzyme 0.25 μg/mL, 5 min): 0.1 µM
(GR)2 concentration (enzyme 0.25 μg/mL, 5 min): BLQ
(GR)4 concentration (enzyme 0.25 μg/mL, 5 min): BLQ
(GR)6 concentration (enzyme 0.25 μg/mL, 5 min): BLQ
(GR)8 concentration (enzyme 0.25 μg/mL, 5 min): BLQ
(GR)10 concentration (enzyme 0.25 μg/mL, 5 min): 54.4 µM
(GR)1 concentration (enzyme 0.25 μg/mL, 10 min): 0.2 µM
(GR)2 concentration (enzyme 0.25 μg/mL, 10 min): BLQ
(GR)4 concentration (enzyme 0.25 μg/mL, 10 min): BLQ
(GR)6 concentration (enzyme 0.25 μg/mL, 10 min): BLQ
(GR)8 concentration (enzyme 0.25 μg/mL, 10 min): BLQ
(GR)10 concentration (enzyme 0.25 μg/mL, 10 min): 50.3 µM
(GR)1 concentration (enzyme 0.25 μg/mL, 30 min): 0.6 µM
(GR)2 concentration (enzyme 0.25 μg/mL, 30 min): 0.2 µM
(GR)4 concentration (enzyme 0.25 μg/mL, 30 min): 0.1 µM
(GR)6 concentration (enzyme 0.25 μg/mL, 30 min): BLQ
(GR)8 concentration (enzyme 0.25 μg/mL, 30 min): 0.3 µM
(GR)10 concentration (enzyme 0.25 μg/mL, 30 min): 55.1 µM
(GR)1 concentration (enzyme 0.25 μg/mL, 60 min): 1.0 µM
(GR)2 concentration (enzyme 0.25 μg/mL, 60 min): 0.3 µM
(GR)4 concentration (enzyme 0.25 μg/mL, 60 min): BLQ
(GR)6 concentration (enzyme 0.25 μg/mL, 60 min): BLQ
(GR)8 concentration (enzyme 0.25 μg/mL, 60 min): 0.3 µM
(GR)10 concentration (enzyme 0.25 μg/mL, 60 min): 56.3 µM
(GR)1 concentration (enzyme 10 μg/mL, 0 min): BLQ
(GR)2 concentration (enzyme 10 μg/mL, 0 min): BLQ
(GR)4 concentration (enzyme 10 μg/mL, 0 min): BLQ
(GR)6 concentration (enzyme 10 μg/mL, 0 min): BLQ
(GR)8 concentration (enzyme 10 μg/mL, 0 min): BLQ
(GR)10 concentration (enzyme 10 μg/mL, 0 min): 49.4 µM
(GR)1 concentration (enzyme 10 μg/mL, 2.5 min): 3.0 µM
(GR)2 concentration (enzyme 10 μg/mL, 2.5 min): 0.5 µM
(GR)4 concentration (enzyme 10 μg/mL, 2.5 min): 0.6 µM
(GR)6 concentration (enzyme 10 μg/mL, 2.5 min): 0.5 µM
(GR)8 concentration (enzyme 10 μg/mL, 2.5 min): 0.6 µM
(GR)10 concentration (enzyme 10 μg/mL, 2.5 min): 55.4 µM
(GR)1 concentration (enzyme 10 μg/mL, 5 min): 5.3 µM
(GR)2 concentration (enzyme 10 μg/mL, 5 min): 0.8 µM
(GR)4 concentration (enzyme 10 μg/mL, 5 min): 1.3 µM
(GR)6 concentration (enzyme 10 μg/mL, 5 min): 0.8 µM
(GR)8 concentration (enzyme 10 μg/mL, 5 min): 1.3 µM
(GR)10 concentration (enzyme 10 μg/mL, 5 min): 48.8 µM
(GR)1 concentration (enzyme 10 μg/mL, 10 min): 11.9 µM
(GR)2 concentration (enzyme 10 μg/mL, 10 min): 1.4 µM
(GR)4 concentration (enzyme 10 μg/mL, 10 min): 2.9 µM
(GR)6 concentration (enzyme 10 μg/mL, 10 min): 2.2 µM
(GR)8 concentration (enzyme 10 μg/mL, 10 min): 2.6 µM
(GR)10 concentration (enzyme 10 μg/mL, 10 min): 44.1 µM
(GR)1 concentration (enzyme 10 μg/mL, 30 min): 44.8 µM
(GR)2 concentration (enzyme 10 μg/mL, 30 min): 5.7 µM
(GR)4 concentration (enzyme 10 μg/mL, 30 min): 9.5 µM
(GR)6 concentration (enzyme 10 μg/mL, 30 min): 5.2 µM
(GR)8 concentration (enzyme 10 μg/mL, 30 min): 3.5 µM
(GR)10 concentration (enzyme 10 μg/mL, 30 min): 16.6 µM
(GR)1 concentration (enzyme 10 μg/mL, 60 min): 64.1 µM
(GR)2 concentration (enzyme 10 μg/mL, 60 min): 10.1 µM
(GR)4 concentration (enzyme 10 μg/mL, 60 min): 13.6 µM
(GR)6 concentration (enzyme 10 μg/mL, 60 min): 6.6 µM
(GR)8 concentration (enzyme 10 μg/mL, 60 min): 5.7 µM
(GR)10 concentration (enzyme 10 μg/mL, 60 min): 10.6 µM
B1: Proteinase K: protease that cleaves peptide bonds adjacent to the carboxylic group of aliphatic and aromatic amino acids (protein)
chain: AAQTNAPWGLARISSTSPGTSTYYYDESAGQGSCVYVIDTGIEASHPEFEGRAQMVKTYYYSSRDGNGHGTHCAGTVGSRTYGVAKKTQLFGVKVLDDNGSGQYSTIIAGMDFVASDKNNRNCPKGVVASLSLGGGYSSSVNSAAARLQSSGVMVAVAAGNNNADARNYSPASEPSVCTVGASDRYDRRSSFSNYGSVLDIFGPGTSILSTWIGGSTRSISGTSMATPHVAGLAAYLMTLGKTTAASACRYIADTANKGDLSNIPFGTVNLLAYNNYQA
